Assay [1] deals with RSV-F of RSV subtype A strain A2 (1540) (respiratory syncytial virus subtype A, …, UniProt P03420 26-574). The assay can be described thus: cell-based or functional assay.
Another assay concerns the target T1, RSV-F.mmh (Respiratory Syncytial Virus).
T1 construct: also called recombinant RSV-F; soluble monomeric RSV-F
The assay can be described thus: SPR (Biacore), mAb captured via Fc, soluble RSV-F.mmh injected, 25 C. On the technique in general: In SPR one partner is held on a chip, and binding of the other changes the refractive index at the surface.

Results on 15 molecules are retold here after US20140271653A1 (Regeneron, published 2014).

B1: H1H3591P (antibody, V domains shown)
VH: EVQLVESGGGLVQPGRSLRLSCAASGFTFDDYAMHWVRQTPGKGLEWISGISWSSGTIVYADSVKGRFTISRDNAKNSLYLQMNSLRGEDTALYHCAKDGYRWKSYSYGLDVWGQGTTVTVSS
VL: EIVMTQSPATLSLSPGERATLSCRPSQSVINNLAWYQQKPGQAPRLLIFGASSRATGIPARFSGSGSGTEFTLTISSLQSEDFALYYCQQYNNWPLTFGGGTKVEIK
For B1, in assay [1], the “IC50 [pM] for RSV A2 Neutralization, Trial 4” value (“IC50 [pM] … Trial 4” for short) turned out to be 6 pM; the “IC50 [pM] for RSV A2 Neutralization, Trial 6” value (from here on “IC50 [pM] … Trial 6”) came to 8 pM; the “IC50 [pM] for RSV A2 Neutralization, Trial 7” value worked out at 6 pM. Further, in the assay with RSV-F.mmh, binding was put at a Kd of 34.2 nM, the dissociation rate constant (koff) was determined as 0.00153 s⁻¹, the on-rate constant (kon) came out at 44600 M⁻¹ s⁻¹ and the “t½” value came to 8 min.

B2: H1H3597P (antibody, V domains shown)
VH: EVQLVESGGGLVQPGGSLRLSCGASGFTFRDFDMNWVRQAPGRGLEWVSGIGGSGGNTYYADSVKGRFTISRDNSKNTLFLQMSSLRAEDTAVYYCVKDPYGDYRNYYGMDVWGQGTTVTVSS
VL: DIVMTQSPLSLPVTPGEPASISCRSSQSLLHSNGYNYLDWYLQKPGQSPQLLIYLGSNRASGVPDRFRGSGSDKDFTLKISRVGAEDVGVYYCMQALQTITFGQGTRLEIK
As to B2, the “IC50 [pM] for RSV A2 Neutralization, Trial 1” value (from here on “IC50 [pM] … Trial 1”) in assay [1] is over 10000 pM. Also, in the assay with RSV-F.mmh, the binding result is “no binding”.

B3: H1H3598P (antibody, V domains shown)
VH: EVQLVESGGGLGQPGGSLRLSCGASGFMFRNYAMSWVRQAPGKGLEWVSTILDSGDNTYYADSVKGRFTISRDNSKNTLYLQMNSLRAEDTAVYYCAKDPYGDYRDYYGMDVWGQGTTVTVSS
VL: DIVMTQSPLSLPVTPGEPASISCRSSQSLLHSNGYNYLDWYLQKPGQSPQLLIYLGSNRASGVPDRFRGSGSGKDFTLKISRVEAEDVGLYYCMQALQTITFGQGTRLEIK
Take B3: the “IC50 [pM] … Trial 1” value in assay [1] is over 10000 pM. For the same molecule, the binding result in the assay with RSV-F.mmh is reported as “no binding”.

B4: H1H3605P (antibody, V domains shown)
VH: QVQLQESGPGLVKPSETLSLTCTVSGGFISNYYWSWIRQPPGKGLEWIGYIYYSGSTKYNPSLKSRVTISVDTSKNQFSLKLSSVSAADTAVYYCARDGVVAAAGPPYHYHYGLDVWGQGTTVTVSS
VL: DIVMTQSPDSLAVSLGERATINCKSSQNLLYTSSNKNSLAWYQQKPGQPPELLIYWASTRESGVPDRFSGSGSGTDFILTISSLQAEDVAVYYCQQYYSSPWTFGQGTKVEIK
For B4, in assay [1], the “IC50 [pM] … Trial 1” value is over 10000 pM. Further, in the assay with RSV-F.mmh, binding was characterised by a dissociation constant (Kd) of 59 nM, the koff was found to be 0.000168 s⁻¹, the association rate constant (kon) turned out to be 2800 M⁻¹ s⁻¹ and the “t½” value is 69 min.

B5: H1H3589P (antibody, V domains shown)
VH: EVQLVESGGGLVQPGGSLRLSCEASGFTFSTYWMSWVRQAPGKGLEWVANIKQDGSVKYFVDSVKGRFTVSRDNAKNSLYLQMNSLRAEDTALYHCARERHRGSYYGYYDGMDVWGQGTTVTVSS
VL: DIQMTQSPSSLSASVGDRVTITCRASQNIDIYLNWYQERPGKAPNLLIYAASSLQSGVPSRFSGSGSGTDFTLTISSLQPEDFATYYCQQSYNTPFTFGGGTKVEIK
With B5, the “IC50 [pM] for RSV A2 Neutralization, Trial 5” value in assay [1] worked out at 300 pM. For the same molecule, in the assay with RSV-F.mmh, the equilibrium dissociation constant (Kd) turned out to be 243 nM, the off-rate (koff) stood at 0.00914 s⁻¹, the on-rate (kon) amounted to 37700 M⁻¹ s⁻¹ and the “t½” value stood at 1 min.

B6: H1H3603P (antibody, V domains shown)
VH: QVQLQESGPGLVKPSETLSLTCTVSGGSISGYYWTWIRQPPGKGLEWIGYIYYSGATNYNPSLKSRVTISLDTSKNQFSLKLSSVTAADTAVYYCARDGNYDILTGYYNYHYYGMDVWGQGTTVTVSS
VL: DIQMTQSPSSLSASVGDRVTITCRASQDIGNYLAWFQQKPGKAPESLIYAASILQSGVPSKFSGSGSGTDFTLTISSLQPEDFATYYCQQYNTFPWTFGQGTKVEIK
Take B6: the “IC50 [pM] … Trial 1” value in assay [1] is over 10000 pM. Also, in the assay with RSV-F.mmh, the affinity, expressed as Kd, was 41 nM; the koff was 0.000123 s⁻¹; the kon is 3000 M⁻¹ s⁻¹; the “t½” value turned out to be 94 min.

B7: H1H3567P (antibody, V domains shown)
VH: QVQLVQSGAEVKKPGASVKVSCKASGYTLTGYYLHWVRQAPGQGLEWMGWINPTSGGTNYAQKFQGRVTMTRDTSISAAFMELSRLRSDDTAVYHCAREFWPHGMDVWGQGTTVTVSS
VL: AIQMTQSPSSLSASVGDRVTITCRASQAIRNDLGWYQQKPGKAPKLLIYASSSLQSGVPSRFSGSGSGTDFTLTISSLQPEDFATYYCLADYKYTWTFGQGTKVEIK
Turning to B7, in assay [1], the “IC50 [pM] … Trial 4” value is 257 pM and the “IC50 [pM] … Trial 6” value came out at 390 pM. For the same molecule, in the assay with RSV-F.mmh, the equilibrium dissociation constant (Kd) worked out at 43.4 nM, the koff was 0.00263 s⁻¹, the kon stood at 60500 M⁻¹ s⁻¹ and the “t½” value amounted to 4 min.

B8: H1H3564P (antibody, V domains shown)
VH: QVQLVQSGAEVKKPGSSVKVSCKASGGTLSNNAFSWVRQAPGQGLEWLGGFNPIFDTANYAQKFQGRITITLDASTGTVYMELSSLRSEDTGVYYCAGTGAHFEFWGQGTLVTVSS
VL: DIQMTQSPSSLSASVGDRVTITCRTSQSISTYLNWYQQKPGKAPKFLIYAASTLQSGVPSRFSGSGSRTDFTLTISSLQPEDFATYYCQQSVSVPYTFGQGTKLEIK
Turning to B8, in assay [1], the “IC50 [pM] … Trial 1” value is over 10000 pM. In the assay with RSV-F.mmh, the Kd worked out at 25 nM, the koff turned out to be 7.78e-05 s⁻¹, the kon worked out at 3100 M⁻¹ s⁻¹ and the “t½” value was 148 min.

B9: H1H3592P (antibody, V domains shown)
VH: EVQLVESGGDLVQPGRSLRLSCVASGFTFDDYAMHWVRQAPGKGLEWVSGVSWSGSTVGYADSVKGRFTVSRDNAQKSLYLQMNSLRAEDTALYYCVKDAYKWNYYYYGLDVWGQGTTVTVSS
VL: EIVMTQSPATLSVSPGERATLSCRASQTILSNLAWYLQKPGQAPRLLIYGASTRATGLPARFSGSGSGTEFTLTISSLQSEDFAVYYCQQYNNWPLTFGGGTKVEIK
As for B9, in assay [1], the “IC50 [pM] … Trial 4” value came to 6 pM; the “IC50 [pM] … Trial 6” value was determined as 5 pM; the “IC50 [pM] for RSV A2 Neutralization, Trial 7” value came to 4 pM. Further, in the assay with RSV-F.mmh, the affinity, expressed as Kd, was 4.39 nM; the koff turned out to be 0.000466 s⁻¹; the kon amounted to 106000 M⁻¹ s⁻¹; the “t½” value stood at 25 min.

B10: H1H3592P2 (antibody, V domains shown)
VH: EVQLVESGGDLVQPGRSLRLSCVASGFTFDDYAMHWVRQAPGKGLEWVSGVSWSGSTVGYADSVKGRFTVSRDNAQKSLYLQMNSLRAEDTALYYCVKDAYKYNYYYYGLDVWGQGTTVTVSS
VL: EIVMTQSPATLSVSPGERATLSCRASQTILSNLAWYLQKPGQAPRLLIYGASTRATGLPARFSGSGSGTEFTLTISSLQSEDFAVYYCQQYNNWPLTFGGGTKVEIK
With B10, in the assay with RSV-F.mmh, the Kd is 14.7 nM, the off-rate (koff) turned out to be 0.00146 s⁻¹, the kon turned out to be 99300 M⁻¹ s⁻¹ and the “t½” value was found to be 8 min.

B11: H1H3565P (antibody, V domains shown)
VH: QVQLVESGGGVVQPGRSLRLSCAASGFTFNSYGMHWVRQAPGKGLEWVTFIWSDGSNKYYLDSVKGRFTISRDNSKNTLYLQMNSLRAEDTAVYYCARSGLASYYYYGMDVWGQGTTVTVSS
VL: DIQMTQSPSSLSASVGDRVTITCRASQGIRNDLGWYQQKPGKAPKRLIYGASSLQSGVPSRFSGSGSGTEFTLTISSLQPEDFATYSCLQHNSYPWTFGQGTKVEIK
In the case of B11, the “IC50 [pM] … Trial 1” value in assay [1] was over 10000 pM. In the assay with RSV-F.mmh, the dissociation constant Kd came out at 3.01 nM, the dissociation rate constant (koff) was 5.8e-05 s⁻¹, the on-rate (kon) turned out to be 19300 M⁻¹ s⁻¹ and the “t½” value worked out at 199 min.

B12: H1H3566P (antibody, V domains shown)
VH: QVQLVESGGGVVQPGRSLRLSCAASGFTFSSYGMHWVRQAPGKGLEWVVFLWYDGSNKHYADSVKGRFTISRDNSKNTLYLQMNSLRAEDTAVYYCARSGLASYYYYSMDVWGQGTTVTVSS
VL: DIQMTQSPSSLSASVGDRVTITCRASQGIRNDLAWYQQKPGKAPKRLIYGASSLHSGVPSRFSGSGSGTEFTLTISSLQPEDFATYSCLQHNSYPWTFGQGTKVEIK
On to B12, for which the “IC50 [pM] … Trial 1” value in assay [1] was over 10000 pM. In the assay with RSV-F.mmh, the Kd worked out at 2.06 nM, the koff stood at 4.2e-05 s⁻¹, the kon is 20400 M⁻¹ s⁻¹ and the “t½” value was 275 min.

B13: H1H3581P (antibody, V domains shown)
VH: EVQLVESGGGLVHPGGSLRLSCEASGFTLSSHVMSWVRQVPGKGLEWVSRISGPGGSTKYADSVQGRFTTSRDNSKNTLYLQMNSLIAEDSAAYYCAKGGGYSGYDWDFYYGMDVWGQGTTVTVSS
VL: DIQMTQSPSSVSASVGDRVTITCRASQGISSWLAWYQQKPGKAPKLLIYAASSLQSGVPSRFSGSGSGTDFTLTISSLQPEDFATYYCQQTNSFPLTFGGGTKVDIK
Turning to B13, in assay [1], the “IC50 [pM] … Trial 1” value is over 10000 pM. The binding result in the assay with RSV-F.mmh was “no binding”.

B14: H1H3583P (antibody, V domains shown)
VH: QVQLVQSGAEVKKSGSSVKVSCKASGGTFSSYAISWVRQAPGQGLEWMGGIIPIFGTGNYAQKFQGRVTITTDESTSTAYMELSSLRSEDTAVYYCARDSSSSPRYYGMDVWGHGTTVTVSS
VL: EIVLTQSPATLSLSPGERATLSCRASQSVTSYLAWYQQKPGQAPRLLIYDVSKRATGIPARFSGSGSGTDFTLTISSLEPEDFATYYCQQRSNWPPTFGQGTRLEIK
Regarding B14, the “IC50 [pM] for RSV A2 Neutralization, Trial 5” value in assay [1] was 50 pM. Moreover, in the assay with RSV-F.mmh, the Kd is 34.4 nM, the koff was 0.00308 s⁻¹, the on-rate constant (kon) is 89400 M⁻¹ s⁻¹ and the “t½” value stood at 4 min.

B15: H1H3604P (antibody, V domains shown)
VH: QVQLVESGGGLVKPGGSLRLSCAASGFTFSDYYMTWIRQAPGRGLEWVSYISDTGSHLYYADSVRGRFTISRDNAKNSLYLQMNNLRAEDTAVYYCARDQDGEMELRFFDYWGQGTLVTVSS
VL: EIVLTQSPATLSLSPGERGTLSCRASQSINNYLAWYQQKPGQAPRLLIFDASNRATGIPARFSGSGSGTDFTLTISRIEPEDFAVYYCQQRTNWPLTFGGGTKVEIK
Regarding B15, in assay [1], the “IC50 [pM] … Trial 1” value is over 10000 pM. In the assay with RSV-F.mmh, binding was characterised by a dissociation constant (Kd) of 30 nM, the koff came out at 9.27e-05 s⁻¹, the kon is 3100 M⁻¹ s⁻¹ and the “t½” value is 125 min.

Broadly, the Kd is a measure of binding affinity in units of concentration. Low readings indicate higher affinity, high ones lower affinity. As usually defined, the koff is the rate constant with which the complex falls apart. Lower therefore signals slow dissociation. What is called kon is a measure of how fast the partners come together. A low value points to slower complex formation. As a reminder, the t½ is the time in which the quantity being followed falls by half. A higher t½ goes with slow decline.
